Ends that are not written are not given here. * marks the point of attachment. Biotin = O=C1N[C@H]2[C@H](CS[C@H]2CCCCC(=O)*)N1
Legend:
Assay in all cases: peptide or protein array; E. coli proteome chip: purified His-tagged proteins printed in duplicate on Fullmoon slides, blocked with 1% BSA; 10 nM N-terminal biotinylated LfcinB with 1% BSA, room temperature, 1 h; detected with DyLight 649-labeled streptavidin, ratio to DyLight 549-labeled anti-His antibody; ProCAT normalisation, local cut-off; triplicate chips
Conditions in all cases: both partners purified
[1] = target: T1, EnvR (E. coli K-12, UniProt P0ACT2 1-220)
T1 construct: EnvR, E. coli K-12
T1 sequence (looked up): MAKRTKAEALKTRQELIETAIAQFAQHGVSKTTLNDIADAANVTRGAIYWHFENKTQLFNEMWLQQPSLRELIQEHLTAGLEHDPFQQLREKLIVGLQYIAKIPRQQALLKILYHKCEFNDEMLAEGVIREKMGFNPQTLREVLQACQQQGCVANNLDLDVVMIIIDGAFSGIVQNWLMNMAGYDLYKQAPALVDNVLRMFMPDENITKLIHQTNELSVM

[2] = target: T2, YcgK (E. coli K-12, UniProt P76002 23-133)
T2 construct: YcgK, E. coli K-12
T2 sequence (looked up): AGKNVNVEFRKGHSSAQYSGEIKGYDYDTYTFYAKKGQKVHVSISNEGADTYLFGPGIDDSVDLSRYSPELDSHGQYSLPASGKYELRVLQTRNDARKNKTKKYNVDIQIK

[3] = target: T3, YijC (E. coli K-12, UniProt P0ACU5 1-234)
T3 construct: YijC, E. coli K-12
T3 sequence (looked up): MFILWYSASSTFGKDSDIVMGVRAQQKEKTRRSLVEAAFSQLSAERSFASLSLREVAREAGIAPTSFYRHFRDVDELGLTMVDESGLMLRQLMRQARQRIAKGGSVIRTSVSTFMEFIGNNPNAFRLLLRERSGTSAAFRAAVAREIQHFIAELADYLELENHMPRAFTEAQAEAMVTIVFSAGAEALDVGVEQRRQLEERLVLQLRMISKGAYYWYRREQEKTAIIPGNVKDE

[4] = target: T4, YcgW (E. coli K-12, UniProt P75987 1-107)
T4 construct: YcgW, E. coli K-12
T4 sequence (looked up): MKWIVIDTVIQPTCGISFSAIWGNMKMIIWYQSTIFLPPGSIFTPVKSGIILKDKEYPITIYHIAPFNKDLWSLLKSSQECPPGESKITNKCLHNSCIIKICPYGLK

[5] = target: T5, YbbN (E. coli K-12, UniProt P77395 1-284)
T5 construct: YbbN, E. coli K-12
T5 sequence (looked up): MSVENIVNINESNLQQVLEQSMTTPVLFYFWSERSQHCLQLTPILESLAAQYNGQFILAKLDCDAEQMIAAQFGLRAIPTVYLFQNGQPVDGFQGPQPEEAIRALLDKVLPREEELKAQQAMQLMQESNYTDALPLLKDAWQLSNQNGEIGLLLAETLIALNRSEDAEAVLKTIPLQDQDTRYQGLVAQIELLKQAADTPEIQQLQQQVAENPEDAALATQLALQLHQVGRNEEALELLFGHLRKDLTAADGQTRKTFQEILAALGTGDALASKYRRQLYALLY

[6] = target: T6, YqcA (E. coli K-12, UniProt P65367 1-149)
T6 construct: YqcA, E. coli K-12
T6 sequence (looked up): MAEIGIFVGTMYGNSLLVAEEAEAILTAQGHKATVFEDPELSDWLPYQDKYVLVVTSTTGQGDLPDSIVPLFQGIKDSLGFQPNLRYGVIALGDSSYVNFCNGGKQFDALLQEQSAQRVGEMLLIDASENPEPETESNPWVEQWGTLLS

Measured: binding result

B1: N-terminal biotinylated Lactoferricin B (peptide, UniProt P24627 36-60, looked up)
peptide: Biotin-FKCRRWQWRMKKLGAPSITCVRRAF
modifications: ends and bridges not checked
notes: lactoferricin B (LfcinB), cationic antimicrobial peptide of 25 amino acids; also called biotinylated LfcinB; biotin-labeled LfcinB; source: bought: Kelowna Inc
binds: [1] | [2] | [3] | [4] | [5] | [6]
